# Laboratory results reported in patent publication US20250215083A1 (JIANGSU HENGRUI PHARMACEUTICALS, published 2025).
# Substitutions are numbered along the chain they refer to. Names may count otherwise.
# B1: F11-7 (bispecific antibody)
# heavy: not shown
# light: DVVLTQSPLSLPVTLGQPASISCKSSQSLLHSNGKTYLNWLLQRPGQSPRRLIYLVSKLDSGVPDRFSGSGSGTDFTLKISRVEAEDVGVYYCAQGTHFPRTFGGGTKVEIKRTVAAPSVFIFPPSDEQLKSGTASVVCLLNNFYPREAKVQWKVDNALQSGNSQESVTEQDSKDSTYSLSSTLTLSKADYEKHKVYACEVTHQGLSSPVTKSFNRGEC
# notes: formula 11
# B2: F11-10 (bispecific antibody)
# heavy: not shown
# light: B1 light
# notes: formula 11
# B3: F11-11 (bispecific antibody)
# heavy: not shown
# light: B1 light with N33S
# notes: formula 11
# B4: F11-12 (bispecific antibody)
# heavy: not shown
# light: B1 light with N33T
# notes: formula 11
# B5: F11-9 (bispecific antibody)
# heavy: not shown
# light: B1 light with N33T
# notes: formula 11
# B6: F11-8 (bispecific antibody)
# heavy: not shown
# light: B1 light with N33S
# notes: formula 11
# B7: F11-2 (bispecific antibody)
# heavy: not shown
# light: DVVMTQTPLSLSVTPGQPASISCRSSQSLVHSSGNTYLYWYLQKPGQSPKLLIYKVSNRFSGVPDRFSGSGSGTDFTLKISRVEAEDVGVYYCSQSTHVPPLTFGQGTKLEIKRTVAAPSVFIFPPSDEQLKSGTASVVCLLNNFYPREAKVQWKVDNALQSGNSQESVTEQDSKDSTYSLSSTLTLSKADYEKHKVYACEVTHQGLSSPVTKSFNRGEC
# notes: formula 11
# B8: F11-5 (bispecific antibody)
# heavy: not shown
# light: B7 light
# notes: formula 11
# B9: F11-4 (bispecific antibody)
# heavy: not shown
# light: B7 light with V2I, S33N, K50Q
# notes: formula 11
# B10: F11-6 (bispecific antibody)
# heavy: not shown
# light: B7 light with S33Q
# notes: formula 11
# B11: F11-3 (bispecific antibody)
# heavy: not shown
# light: B7 light with S33Q
# notes: formula 11
# B12: F11-1 (bispecific antibody)
# heavy: not shown
# light: B7 light with V2I, S33N, K50Q
# notes: formula 11, GPRC5D x CD3 (S107E scFv)
# B13: F11-13 (bispecific antibody)
# heavy: not shown
# light: DIQMTQSPSSVSASVGDRVTITCKASQNVGSNVAWYQQKPGKAPKALIYSASYRYSGVPSRFSGSGSGTDFTLTISSLQPEDFATYYCHQYNSYPPTFGQGTKLEIKRTVAAPSVFIFPPSDEQLKSGTASVVCLLNNFYPREAKVQWKVDNALQSGNSQESVTEQDSKDSTYSLSSTLTLSKADYEKHKVYACEVTHQGLSSPVTKSFNRGEC
# notes: formula 11
# B14: F11-15 (bispecific antibody)
# heavy: not shown
# light: B13 light with A43S, T85E
# notes: formula 11
# B15: F11-14 (bispecific antibody)
# heavy: not shown
# light: B13 light
# notes: formula 11
# B16: F11-16 (bispecific antibody)
# heavy: not shown
# light: B13 light with A43S, T85E
# notes: formula 11
# B17: F2-4 (bispecific antibody)
# heavy 1: not shown
# light 1: DVVMTQSPLSLPVTPGEPASISCRSSQSIVHSNRNTYLEWYLQKPGQSPKLLIYKVSNRFSGVPDRFFGSGSGTDFTLKINRVEAEDVGVYYCFQGSHVPFTFGGGTKVEIKRTVAAPSVFIFPPSDEQLKSGTASVVCLLNNFYPREAKVQWKVDNALQSGNSQESVTEQDSKDSTYSLSSTLTLSKADYEKHKVYACEVTHQGLSSPVTKSFNRGEC
# heavy 2: not shown
# light 2: not shown
# notes: formula 2
# B18: F11-19 (bispecific antibody)
# heavy: not shown
# light: DIVMTQSQKFMSTSVGDRVSVTCKASQNVGSNVAWYQQKPGQSPKALIYSASYRYSGVPDRFTGSGSGTDFTLTISNVQSEDLAEYFCHQYNSYPPTFGAGTKLALKRTVAAPSVFIFPPSDEQLKSGTASVVCLLNNFYPREAKVQWKVDNALQSGNSQESVTEQDSKDSTYSLSSTLTLSKADYEKHKVYACEVTHQGLSSPVTKSFNRGEC
# notes: formula 11 with Chi-30 variable regions
# B19: F11-17 (bispecific antibody)
# heavy: not shown
# light: B7 light with T14S, P15L, Q17D, P18Q, S33N, V88L, Y92F, Q106A, I112L
# notes: formula 11 with Chi-1 variable regions
# B20: F4-1 (bispecific antibody)
# heavy 1: not shown
# light 1: not shown
# heavy 2: EVQLVESGGGLVQPGGSLRLSCAASGFTFTDYYLSWVRQAPGKGLEWVAFIRNRAKGYTTEYSASVKGRFTISRDNAKNSLYLQMNSLRAEDTAVYYCARMGGKGWHFDVWGQGTTVTVSSASTKGPSVFPLAPSSKSTSGGTAALGCLVKDYFPEPVTVSWNSGALTSGVHTFPAVLQSSGLYSLSSVVTVPSSSLGTQTYICNVNHKPSNTKVDKKVEPKSCDKTHTCPPCPAPEAAGGPSVFLFPPKPKDTLMISRTPEVTCVVVDVSHEDPEVKFNWYVDGVEVHNAKTKPREEQYNSTYRVVSVLTVLHQDWLNGKEYKCKVSNKALPAPIEKTISKAKGQPREPQVCTLPPSRDELTKNQVSLSCAVKGFYPSDIAVEWESNGQPENNYKTTPPVLDSDGSFFLVSKLTVDKSRWQQGNVFSCSVMHEALHNHYTQKSLSLSPGK
# light 2: B17 light 1
# notes: formula 4
# B21: F4-9 (bispecific antibody)
# heavy 1: not shown
# light 1: not shown
# heavy 2: EVKLVESGGGLVQPGDFLSLSCAASGFTFTDYYLSWVRQPPGKALEWLAFIRNRAKGYTTEYSASVKGRFTISRDNSQSILYLQMNVLRAEDSATYYCARMGGKGWHFDVWGTGTTVTVSSASTKGPSVFPLAPSSKSTSGGTAALGCLVKDYFPEPVTVSWNSGALTSGVHTFPAVLQSSGLYSLSSVVTVPSSSLGTQTYICNVNHKPSNTKVDKKVEPKSCDKTHTCPPCPAPEAAGGPSVFLFPPKPKDTLMISRTPEVTCVVVDVSHEDPEVKFNWYVDGVEVHNAKTKPREEQYNSTYRVVSVLTVLHQDWLNGKEYKCKVSNKALPAPIEKTISKAKGQPREPQVCTLPPSRDELTKNQVSLSCAVKGFYPSDIAVEWESNGQPENNYKTTPPVLDSDGSFFLVSKLTVDKSRWQQGNVFSCSVMHEALHNHYTQKSLSLSPGK
# light 2: B17 light 1 with V3L, T14S, P15L, E17D, P18Q, R34G, V88L, V109L
# notes: formula 4 with Chi-45 variable regions
# B22: F4-2 (bispecific antibody)
# heavy 1: not shown
# light 1: not shown
# heavy 2: B20 heavy 2 with A77S
# light 2: B17 light 1
# notes: formula 4
# B23: F4-3 (bispecific antibody)
# heavy 1: not shown
# light 1: not shown
# heavy 2: B20 heavy 2 with K78Q
# light 2: B17 light 1
# notes: formula 4
# Target: T1, human GPRC5D (human, UniProt Q9NZD1 1-345)
# T1 construct: whole, on cells; also called membrane surface GPRC5D
# Assay: FACS, MM.1R cells
# Description: (§1) To test the capacity of the GPRC5D/CD3 bispecific antibodies of the present disclosure to bind to GPRC5D, a flow cytometry assay was used in this test example to measure the capacity of the GPRC5D/CD3 bispecific antibodies to bind to the human multiple myeloma cell line MM.1R (ATCC® CRL-2975), which expresses GPRC5D, and to a stably transfected cell strain CHOK1-cynoGPRC5D, which expresses cynomolgus monkey GPRC5D. The specific procedure was as follows: The cells described above were cultured in complete culture medium containing 10% FBS, incubated in a 37° C., 5% CO₂ incubator for 2 days, and added to a cell plate at 1×10⁵ cells/well. The plate was centrifuged at 300 g for 5 min and washed once with 1% BSA. The antibodies were serially diluted to 8 concentrations and added to the cell plate at 100 μL/well. The plate was incubated at 4° C. for 1 h and washed once with 1% BSA. […] The plate was washed three times with 1% BSA, PBS was added at 100 μL/well, and plate reading was performed.
# T1 sequence (Q9NZD1 whole entry): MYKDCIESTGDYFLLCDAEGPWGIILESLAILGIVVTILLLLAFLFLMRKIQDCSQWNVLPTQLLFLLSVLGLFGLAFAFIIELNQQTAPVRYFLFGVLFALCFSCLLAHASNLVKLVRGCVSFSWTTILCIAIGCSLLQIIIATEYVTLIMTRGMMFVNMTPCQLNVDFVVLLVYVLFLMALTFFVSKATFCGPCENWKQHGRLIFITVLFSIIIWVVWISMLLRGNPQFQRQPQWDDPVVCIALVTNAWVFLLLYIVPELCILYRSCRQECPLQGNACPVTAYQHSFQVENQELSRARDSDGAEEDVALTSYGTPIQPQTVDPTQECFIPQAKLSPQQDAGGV
row,EC50 [nM],Binder
1,1.89,B1
2,1.29,B2
3,1.7,B3
4,1.93,B4
5,2.16,B5
6,2,B6
7,0.35,B7
8,0.34,B8
9,0.39,B9
10,0.23,B10
11,0.3,B11
12,0.44,B12
13,1.05,B13
14,0.89,B14
15,0.88,B15
16,0.94,B16
17,7.56,B17

# Target: T2, cynomolgus monkey GPRC5D (cynomolgus monkey)
# T2 construct: whole, on cells; also called CynoGPRC5D; cynoGPRC5D
# Assay: FACS, CHOK1-cynoGPRC5D cells
# Description: as §1
EC50 [nM],Max,Binder
2.71,9790,B18
0.47,1.09,B7
0.35,0.98,B19
0.41,1.12,B8
0.28,1.27,B9
0.32,1.35,B10
0.27,1.45,B11
0.36,1.31,B12
2.21,28100,B13
1.45,24000,B14
1.86,25800,B15
2.95,25200,B16
3.28,76600,B20
4.01,83700,B21
3.45,75200,B22
3.83,76100,B23

# Target: T1, human GPRC5D
# Assay: FACS, MM.1R cells
# Remark: another data set of the same source
# Description: as §1
EC50 [nM],Max,Binder
1.89,2020,B1
1.29,1470,B2
1.7,1560,B3
1.93,1600,B4
2.16,1950,B5
2,1910,B6
1.32,1140,B18
0.35,1.63,B7
0.31,1.82,B19
0.34,1.6,B8
0.39,1.66,B9
0.23,1.6,B10
0.3,1.8,B11
0.44,1.76,B12
1.05,718,B13
0.89,693,B14
0.88,633,B15
0.94,678,B16
16.9,13800,B20
19.2,13200,B21
15.8,13700,B22
16.1,13800,B23

# Target: T2, cynomolgus monkey GPRC5D
# Assay: FACS, CHOK1-cynoGPRC5D cells
# Remark: another data set of the same source
# Description: as §1
row,EC50 [nM],Binder
1,0.76,B1
2,0.4,B2
3,1.01,B3
4,1.6,B4
5,0.17,B5
6,0.36,B6
7,0.47,B7
8,0.42,B8
9,0.28,B9
10,0.32,B10
11,0.27,B11
12,0.36,B12
13,2.21,B13
14,1.45,B14
15,1.86,B15
16,2.95,B16
17,3.95,B17
